Data from US8754033B2, “Peptides for inhibiting transglutaminase” (National Cancer Center, priority 2005, dated 2014).

Molecular target: T1, TGase (UniProt P08587)
T1 sequence (P08587 1-690): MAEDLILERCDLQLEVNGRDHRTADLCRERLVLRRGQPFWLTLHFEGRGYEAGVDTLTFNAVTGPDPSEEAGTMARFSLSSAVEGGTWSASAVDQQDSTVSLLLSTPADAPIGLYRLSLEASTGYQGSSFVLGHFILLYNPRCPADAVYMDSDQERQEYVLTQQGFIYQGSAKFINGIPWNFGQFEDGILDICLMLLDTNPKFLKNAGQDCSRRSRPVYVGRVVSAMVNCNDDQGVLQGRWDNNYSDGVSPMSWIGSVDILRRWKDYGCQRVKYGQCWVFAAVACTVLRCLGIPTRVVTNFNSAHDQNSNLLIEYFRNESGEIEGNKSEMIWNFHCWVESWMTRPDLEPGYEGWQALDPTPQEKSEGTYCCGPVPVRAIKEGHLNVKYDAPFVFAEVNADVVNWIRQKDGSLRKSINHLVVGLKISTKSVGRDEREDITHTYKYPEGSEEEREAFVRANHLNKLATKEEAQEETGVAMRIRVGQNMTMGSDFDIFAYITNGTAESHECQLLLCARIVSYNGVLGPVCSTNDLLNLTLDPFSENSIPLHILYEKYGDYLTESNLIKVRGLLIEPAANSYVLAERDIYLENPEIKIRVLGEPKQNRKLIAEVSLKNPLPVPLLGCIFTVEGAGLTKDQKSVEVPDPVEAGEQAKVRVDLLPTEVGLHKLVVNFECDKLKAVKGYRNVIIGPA
Test: Competition assay: transglutaminase-mediated I-κBα cross-linking with or without synthetic peptides
Format: biochemical, guinea pig
Settings: peptide 2 nmol, I-κBα 2 μg, 0.5 mU TGase, 10 mM CaCl2, 10 min at 37° C., SDS-PAGE, Coomassie band intensity
Method: I-κBα (2 μg) was incubated with 0.5 mU TGase in a reaction buffer containing 50 mM Tris pH 7.5 and 10 mM CaCl2, with or without the peptides (2 nmol) of Table 1, so as to observe the cross-linking of I-κBα. The peptides of Table 1 were synthesized in Peptron Inc. After incubation for 10 min at 37° C., the reactants were separated by SDS-PAGE and visualized by Coomassie staining. Bands were measured for intensity using Adobe Photoshop software (FIGS. 7 and 8).

Question: How did the “inhibition of transglutaminase-mediated I-κBα polymerization” value turn out when “ENLQMLP [I-κBα-derived synthetic peptide, residues 275-281]” was run?
Answer: inhibit transglutaminase-mediated I-κBα polymerization

Question: With “GVLTQSCTT [I-κBα-derived synthetic peptide, residues 161-169]” as the molecule, how does the “inhibition of transglutaminase-mediated I-κBα polymerization” value read?
Answer: inhibit transglutaminase-mediated I-κBα polymerization

Question: How did the “inhibition of transglutaminase-mediated I-κBα polymerization” value turn out when “HSILKATNY [I-κBα-derived synthetic peptide, residues 173-181]” was run?
Answer: inhibit transglutaminase-mediated I-κBα polymerization

Question: Which “inhibition of transglutaminase-mediated I-κBα polymerization” value does the source give for “IHEEKALTM [I-κBα-derived synthetic peptide, residues 83-91]” here?
Answer: inhibit transglutaminase-mediated I-κBα polymerization

Question: Which “inhibition of transglutaminase-mediated I-κBα polymerization” value does the source give for “ILKAT [I-κBα-derived synthetic peptide, residues 175-179]” here?
Answer: inhibit transglutaminase-mediated I-κBα polymerization

Question: Which “inhibition of transglutaminase-mediated I-κBα polymerization” value does the source give for “LGQLT [I-κBα-derived synthetic peptide, residues 269-273]” here?
Answer: inhibit transglutaminase-mediated I-κBα polymerization

Question: “RDGLKKERLL [I-κBα-derived synthetic peptide, residues 17-26]” was tested. Which “inhibition of transglutaminase-mediated I-κBα polymerization” value did it give?
Answer: inhibit transglutaminase-mediated I-κBα polymerization

Question: Which “inhibition of transglutaminase-mediated I-κBα polymerization” value does the source give for “RIEEQLG [mutant of I-κBα-derived peptide]” here?
Answer: inhibit transglutaminase-mediated I-κBα polymerization

Question: With “RIEQELG [mutant of I-κBα-derived peptide]” as the molecule, how does the “inhibition of transglutaminase-mediated I-κBα polymerization” value read?
Answer: inhibit transglutaminase-mediated I-κBα polymerization

Question: How did the “inhibition of transglutaminase-mediated I-κBα polymerization” value turn out when “RIQEELG [mutant of I-κBα-derived peptide]” was run?
Answer: inhibit transglutaminase-mediated I-κBα polymerization

Question: Which “inhibition of transglutaminase-mediated I-κBα polymerization” value does the source give for “RIQQQLG [I-κBα-derived synthetic peptide, residues 264-270]” here?
Answer: inhibit transglutaminase-mediated I-κBα polymerization

Question: Which “inhibition of transglutaminase-mediated I-κBα polymerization” value does the source give for “TRIQQQLGQLTL [I-κBα-derived synthetic peptide, residues 263-274]” here?
Answer: inhibit transglutaminase-mediated I-κBα polymerization

Question: How did the “inhibition of transglutaminase-mediated I-κBα polymerization” value turn out when “VFGGQRLTL [I-κBα-derived synthetic peptide, residues 309-317]” was run?
Answer: inhibit transglutaminase-mediated I-κBα polymerization

Molecular target: transglutaminase (guinea pig liver, Sigma) (Cavia cutleri, UniProt P08587)
Test: not given
Settings: purified I-κBα with 1 mU transglutaminase, 50 mM Tris-HCl pH 7.5, 10 mM CaCl2, NuPAGE gel; in the presence of EDTA

Question: How did the “inhibition of transglutaminase (I-κBα polymerization)” value turn out when O=C(O)CN(CCN(CC(=O)O)CC(=O)O)CC(=O)O [EDTA] was run?
Answer: inhibited
